The chains are these.
T1: VEGF 항원 단백질 (VEGF-His) (UniProt P15692-4 27-191, limits assumed)
T1 construct: Expressed from pN293-VEGF in HEK293F cells, purified on Ni-NTA and by gel filtration; also called 혈관 내피세포 성장인자
T1 sequence: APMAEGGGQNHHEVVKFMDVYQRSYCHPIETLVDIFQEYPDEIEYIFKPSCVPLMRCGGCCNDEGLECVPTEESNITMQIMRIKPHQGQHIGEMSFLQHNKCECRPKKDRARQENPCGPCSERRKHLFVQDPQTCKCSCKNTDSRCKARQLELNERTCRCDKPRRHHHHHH

B1: 항-VEGF 단일클론 인간항체 4C4 (IgG형) (antibody, V domains shown)
VH: QVQLVQSGAEVKKPGSSVKVSCKASGGTFSSSAFSWVRQAPGHGLEWMGRIIPMFDMTDYAQRFQGRLTIIADESSSTAYMELSSLRSEDTAVYYCARYKSGSYGMDVWGQGTTVTVSS
VL: NFMLTQPASVSGSPGQSITISCTGSSSDVGGYNYVSWYQQHPGKAPQLIIYDVTKRPSGVSNRFSGSKSGNSASLTISGLQAEDEADYYCSSYSSSTFYVFGTGTKVTVL
B2: 항-VEGF 단일클론 인간항체 3H1 (IgG형) (antibody, V domains shown)
VH: QVQLVESGGGLVKPGGSLRLSCAASGFIFSRYGMNWVRQAPGKGLEWVSSISGSSNYRYYADSVKGRFTISRDNAKNSLYLQMNSLRAEDTAVYYCARDASWGLIQGLDSWGQGTLVTVSS
VL: DIQMTQSPSSLSASVGDRVTITCRASQSISSYLNWYQQEPGKAPKLLIYDASSLQSGVPSRFSGGGSGTDFTLTISSLQPEDFAAYYCQQSYSTPYTFGQGTKVDIK
B3: 항-VEGF 단일클론 인간항체 7D2 (IgG형) (antibody, V domains shown)
VH: QMQLVQSGGGLVQPGGSLRLSCAASGFTFSSFEMNWVRQAPGKGLEWLSYISNSGSTIYYADSVKGRFTISRDNAKNSLYLQMNSLRAEDTAVYYCARDSRYYGIHGMDVWGQGTTITVSS
VL: DIQMTQSPSSLSASVGDRVTITCRASQTISTYLNWYQQKPGKAPKLLIYAASSLQSGVPSRFSGSGSGTDFTLTISSLQPEDFATYYCQQSSSTPRTFGQGTRLEIK

The experiment addresses T1, VEGF 항원 단백질 (VEGF-His). The experiment is described as follows: ELISA on plate-coated VEGF-His (100 ng/well), IgG diluted 1/2 from 50 nM, anti-human Fc-HRP, fit in GraphPad Prism. For orientation: An ELISA detects its analyte on a solid surface through an enzyme-linked reagent.
Consider B1, for which the Kd was 0.025 nM. For B2, binding was put at a Kd of 0.06 nM. This Kd is about 2.4-fold higher than that of the molecule before. The molecule B3 displayed a dissociation constant Kd of 0.05 nM.

As usually defined, the Kd is the equilibrium constant for the complex coming apart. A lower Kd goes with higher affinity.

The record behind these values is KR20180095349A (dated 2018).
